Measured values from PMC3099244.

Target: TAP-tagged wild-type Dyn1-GFP (cytoplasmic dynein heavy chain) (S. cerevisiae) (UniProt P36022)
Experiment: single-molecule stepwise photobleaching

- stoichiometry N: 2
Substance: TAP-tagged wild-type Dyn1-GFP (cytoplasmic dynein heavy chain), P36022 1-4092
